Drawing on patent publication EP4700044A1, “PROTEIN ANALOGUE AND USE THEREOF” (Shanghai Duomirui Biotechnology., Ltd., priority 2023, dated 2024), this text covers EC50(nM), dual-luciferase reporter gene assay, iLite FGF21 assay ready cells for 21 molecules.

B1: Human mature FGF21 mutant RGE (FGF21RGE), Q9NSA1 29-209 (ligand)
chain: HPIPDSSPLLQFGGQVRQRYLYTDDAQQTEAHLEIREDGTVGGAADQSPESLLQLKALKPGVIQILGVKTSRFLCQRPDGALYGSLHFDPEACSFRERLLEDGYNVYQSEAHGLPLHLPGNKSPHRDPAPRGPARFLPLPGLPPAPPEPPGILAPQPPDVGSSDPLSMVGGSQGRSPSYES
B2: Compound 5.7, Q9NSA1 29-209 (ligand)
chain: HPIPDSSPLLQFGGQVRQRYLYTDDAQQTEAHLEIREDGTVGGAACQSPESLLQLKALKPGVIQILGVKTSRFLCQRPDGALYGSLHFDPEACSFRERLLEDGYNVYQSEAHGLPLHLPGNKSPHRDPAPRGPARFLPLPGLPPAPPEPPGILAPQPPDVGSSDPLSMVGGSQGRSPSYES
modifications: here or on the partner: Cys 46 (D46C) carries the albumin-binding agent of Example 2.2, C18 Dicarboxylic Acid-gGlu-AEEA-AEEA-Lys(bromoacetyl)-COOH (bromine displaced by the thiol)
B3: Compound 5.2, Q9NSA1 29-209 (ligand)
chain: HPIPDSSPLLQFGGQVRQRYLYTDDAQQTEAHLEIRECGTVGGAADQSPESLLQLKALKPGVIQILGVKTSRFLCQRPDGALYGSLHFDPEACSFRERLLEDGYNVYQSEAHGLPLHLPGNKSPHRDPAPRGPARFLPLPGLPPAPPEPPGILAPQPPDVGSSDPLSMVGGSQGRSPSYES
modifications: here or on the partner: Cys 38 (D38C) carries the albumin-binding agent of Example 2.1, C18 Dicarboxylic Acid-AEEA-gGlu-gGlu-Lys(bromoacetyl)-COOH (bromine displaced by the thiol)
B4: Human mature FGF21 mutant E30C (FGF21E30C), Q9NSA1 29-209 (ligand)
chain: HPIPDSSPLLQFGGQVRQRYLYTDDAQQTCAHLEIREDGTVGGAADQSPESLLQLKALKPGVIQILGVKTSRFLCQRPDGALYGSLHFDPEACSFRERLLEDGYNVYQSEAHGLPLHLPGNKSPHRDPAPRGPARFLPLPGLPPAPPEPPGILAPQPPDVGSSDPLSMVGGSQGRSPSYES
B5: Compound 5.4, Q9NSA1 29-209 (ligand)
chain: HPIPDSSPLLQFGGQVRQRYLYTDDAQQTEAHLEIREDGTVGGAADQSPESLLQLKALKPGVIQILGVKTSRFLCQRPDGALYGSLHFDPEACSFRERLLEDGYNVYQSEAHGLPLHLPGNCSPHRDPAPRGPARFLPLPGLPPAPPEPPGILAPQPPDVGSSDPLSMVGGSQGRSPSYES
modifications: here or on the partner: Cys 122 (K122C) carries the albumin-binding agent of Example 2.1, C18 Dicarboxylic Acid-AEEA-gGlu-gGlu-Lys(bromoacetyl)-COOH (bromine displaced by the thiol)
B6: Compound 5.1, Q9NSA1 29-209 (ligand)
chain: HPIPDSSPLLQFGGQVRQRYLYTDDAQQTCAHLEIREDGTVGGAADQSPESLLQLKALKPGVIQILGVKTSRFLCQRPDGALYGSLHFDPEACSFRERLLEDGYNVYQSEAHGLPLHLPGNKSPHRDPAPRGPARFLPLPGLPPAPPEPPGILAPQPPDVGSSDPLSMVGGSQGRSPSYES
modifications: here or on the partner: Cys 30 (E30C) carries the albumin-binding agent of Example 2.1, C18 Dicarboxylic Acid-AEEA-gGlu-gGlu-Lys(bromoacetyl)-COOH (bromine displaced by the thiol)
B7: Human mature FGF21 mutant K122C (FGF21K122C), Q9NSA1 29-209 (ligand)
chain: HPIPDSSPLLQFGGQVRQRYLYTDDAQQTEAHLEIREDGTVGGAADQSPESLLQLKALKPGVIQILGVKTSRFLCQRPDGALYGSLHFDPEACSFRERLLEDGYNVYQSEAHGLPLHLPGNCSPHRDPAPRGPARFLPLPGLPPAPPEPPGILAPQPPDVGSSDPLSMVGGSQGRSPSYES
B8: Compound 5.3, Q9NSA1 29-209 (ligand)
chain: HPIPDSSPLLQFGGQVRQRYLYTDDAQQTEAHLEIREDGTVGGAACQSPESLLQLKALKPGVIQILGVKTSRFLCQRPDGALYGSLHFDPEACSFRERLLEDGYNVYQSEAHGLPLHLPGNKSPHRDPAPRGPARFLPLPGLPPAPPEPPGILAPQPPDVGSSDPLSMVGGSQGRSPSYES
modifications: here or on the partner: Cys 46 (D46C) carries the albumin-binding agent of Example 2.1, C18 Dicarboxylic Acid-AEEA-gGlu-gGlu-Lys(bromoacetyl)-COOH (bromine displaced by the thiol)
B9: Compound 5.13, Q9NSA1 29-209 (ligand)
chain: HPIPDSSPLLQFGGQVRQRYLYTDDAQQTEAHLEIREDGTVGGAACQSPESLLQLKALKPGVIQILGVKTSRFLCQRPDGALYGSLHFDPEACSFRERLLEDGYNVYQSEAHGLPLHLPGNKSPHRDPAPRGPARFLPLPGLPPAPPEPPGILAPQPPDVGSSDPLSMVGGSQGRSPSYES
modifications: here or on the partner: Cys 46 (D46C) carries the albumin-binding agent of Example 2.4, C20 Dicarboxylic Acid-gGlu-AEEA-AEEA-Lys(bromoacetyl)-COOH (bromine displaced by the thiol)
B10: Compound 5.8, Q9NSA1 29-209 (ligand)
chain: HPIPDSSPLLQFGGQVRQRYLYTDDAQQTEAHLEIREDGTVGGAADQSPESLLQLKALKPGVIQILGVKTSRFLCQRPDGALYGSLHFDPEACSFRERLLEDGYNVYQSEAHGLPLHLPGNCSPHRDPAPRGPARFLPLPGLPPAPPEPPGILAPQPPDVGSSDPLSMVGGSQGRSPSYES
modifications: here or on the partner: Cys 122 (K122C) carries the albumin-binding agent of Example 2.2, C18 Dicarboxylic Acid-gGlu-AEEA-AEEA-Lys(bromoacetyl)-COOH (bromine displaced by the thiol)
B11: Compound 5.15, Q9NSA1 29-209 (ligand)
chain: HPIPDSSPLLQFGGQVRQRYLYTDDAQQTEAHLEIREDGTVGGAADQSPESLLQLKALKPGVIQILGVKTSRFLCQRPDGALYGSLHFDPEACSFRERLLEDGYNVYQSEAHGLPLHLPGNKSPCRDPAPRGPARFLPLPGLPPAPPEPPGILAPQPPDVGSSDPLSMVGGSQGRSPSYES
modifications: here or on the partner: Cys 125 (H125C) carries the albumin-binding agent of Example 2.4, C20 Dicarboxylic Acid-gGlu-AEEA-AEEA-Lys(bromoacetyl)-COOH (bromine displaced by the thiol)
B12: Compound 5.5, Q9NSA1 29-209 (ligand)
chain: HPIPDSSPLLQFGGQVRQRYLYTDDAQQTEAHLEIREDGTVGGAADQSPESLLQLKALKPGVIQILGVKTSRFLCQRPDGALYGSLHFDPEACSFRERLLEDGYNVYQSEAHGLPLHLPGNKSPCRDPAPRGPARFLPLPGLPPAPPEPPGILAPQPPDVGSSDPLSMVGGSQGRSPSYES
modifications: here or on the partner: Cys 125 (H125C) carries the albumin-binding agent of Example 2.1, C18 Dicarboxylic Acid-AEEA-gGlu-gGlu-Lys(bromoacetyl)-COOH (bromine displaced by the thiol)
B13: Human mature FGF21 mutant D46C (FGF21D46C), Q9NSA1 29-209 (ligand)
chain: HPIPDSSPLLQFGGQVRQRYLYTDDAQQTEAHLEIREDGTVGGAACQSPESLLQLKALKPGVIQILGVKTSRFLCQRPDGALYGSLHFDPEACSFRERLLEDGYNVYQSEAHGLPLHLPGNKSPHRDPAPRGPARFLPLPGLPPAPPEPPGILAPQPPDVGSSDPLSMVGGSQGRSPSYES
B14: Compound 5.9, Q9NSA1 29-209 (ligand)
chain: HPIPDSSPLLQFGGQVRQRYLYTDDAQQTEAHLEIREDGTVGGAADQSPESLLQLKALKPGVIQILGVKTSRFLCQRPDGALYGSLHFDPEACSFRERLLEDGYNVYQSEAHGLPLHLPGNKSPCRDPAPRGPARFLPLPGLPPAPPEPPGILAPQPPDVGSSDPLSMVGGSQGRSPSYES
modifications: here or on the partner: Cys 125 (H125C) carries the albumin-binding agent of Example 2.2, C18 Dicarboxylic Acid-gGlu-AEEA-AEEA-Lys(bromoacetyl)-COOH (bromine displaced by the thiol)
B15: Human mature FGF21 mutant H125C (FGF21H125C), Q9NSA1 29-209 (ligand)
chain: HPIPDSSPLLQFGGQVRQRYLYTDDAQQTEAHLEIREDGTVGGAADQSPESLLQLKALKPGVIQILGVKTSRFLCQRPDGALYGSLHFDPEACSFRERLLEDGYNVYQSEAHGLPLHLPGNKSPCRDPAPRGPARFLPLPGLPPAPPEPPGILAPQPPDVGSSDPLSMVGGSQGRSPSYES
B16: Compound 5.14, Q9NSA1 29-209 (ligand)
chain: HPIPDSSPLLQFGGQVRQRYLYTDDAQQTEAHLEIREDGTVGGAADQSPESLLQLKALKPGVIQILGVKTSRFLCQRPDGALYGSLHFDPEACSFRERLLEDGYNVYQSEAHGLPLHLPGNCSPHRDPAPRGPARFLPLPGLPPAPPEPPGILAPQPPDVGSSDPLSMVGGSQGRSPSYES
modifications: here or on the partner: Cys 122 (K122C) carries the albumin-binding agent of Example 2.4, C20 Dicarboxylic Acid-gGlu-AEEA-AEEA-Lys(bromoacetyl)-COOH (bromine displaced by the thiol)
B17: Compound 5.6, Q9NSA1 29-209 (ligand)
chain: HPIPDSSPLLQFGGQVRQRYLYTDDAQQTEAHLEIRECGTVGGAADQSPESLLQLKALKPGVIQILGVKTSRFLCQRPDGALYGSLHFDPEACSFRERLLEDGYNVYQSEAHGLPLHLPGNKSPHRDPAPRGPARFLPLPGLPPAPPEPPGILAPQPPDVGSSDPLSMVGGSQGRSPSYES
modifications: here or on the partner: Cys 38 (D38C) carries the albumin-binding agent of Example 2.2, C18 Dicarboxylic Acid-gGlu-AEEA-AEEA-Lys(bromoacetyl)-COOH (bromine displaced by the thiol)
B18: Compound 5.11, Q9NSA1 29-209 (ligand)
chain: HPIPDSSPLLQFGGQVRQRYLYTDDAQQTEAHLEIREDGTVGGAADQSPESLLQLKALKPGVIQILGVKTSRFLCQRPDGALYGSLHFDPEACSFRERLLEDGYNVYQSEAHGLPLHLPGNCSPHRDPAPRGPARFLPLPGLPPAPPEPPGILAPQPPDVGSSDPLSMVGGSQGRSPSYES
modifications: here or on the partner: Cys 122 (K122C) carries the albumin-binding agent of Example 2.3, C20 Dicarboxylic Acid-AEEA-gGlu-gGlu-Lys(bromoacetyl)-COOH (bromine displaced by the thiol)
B19: Human mature FGF21 mutant D38C (FGF21D38C), Q9NSA1 29-209 (ligand)
chain: HPIPDSSPLLQFGGQVRQRYLYTDDAQQTEAHLEIRECGTVGGAADQSPESLLQLKALKPGVIQILGVKTSRFLCQRPDGALYGSLHFDPEACSFRERLLEDGYNVYQSEAHGLPLHLPGNKSPHRDPAPRGPARFLPLPGLPPAPPEPPGILAPQPPDVGSSDPLSMVGGSQGRSPSYES
B20: Compound 5.12, Q9NSA1 29-209 (ligand)
chain: HPIPDSSPLLQFGGQVRQRYLYTDDAQQTEAHLEIREDGTVGGAADQSPESLLQLKALKPGVIQILGVKTSRFLCQRPDGALYGSLHFDPEACSFRERLLEDGYNVYQSEAHGLPLHLPGNKSPCRDPAPRGPARFLPLPGLPPAPPEPPGILAPQPPDVGSSDPLSMVGGSQGRSPSYES
modifications: here or on the partner: Cys 125 (H125C) carries the albumin-binding agent of Example 2.3, C20 Dicarboxylic Acid-AEEA-gGlu-gGlu-Lys(bromoacetyl)-COOH (bromine displaced by the thiol)
B21: Compound 5.10, Q9NSA1 29-209 (ligand)
chain: HPIPDSSPLLQFGGQVRQRYLYTDDAQQTEAHLEIREDGTVGGAACQSPESLLQLKALKPGVIQILGVKTSRFLCQRPDGALYGSLHFDPEACSFRERLLEDGYNVYQSEAHGLPLHLPGNKSPHRDPAPRGPARFLPLPGLPPAPPEPPGILAPQPPDVGSSDPLSMVGGSQGRSPSYES
modifications: here or on the partner: Cys 46 (D46C) carries the albumin-binding agent of Example 2.3, C20 Dicarboxylic Acid-AEEA-gGlu-gGlu-Lys(bromoacetyl)-COOH (bromine displaced by the thiol)

The assay deals with FGFR1c, P11362. The assay is described as follows: cell-based or functional assay.
Sequence of FGFR1c, P11362 (P11362 22-822): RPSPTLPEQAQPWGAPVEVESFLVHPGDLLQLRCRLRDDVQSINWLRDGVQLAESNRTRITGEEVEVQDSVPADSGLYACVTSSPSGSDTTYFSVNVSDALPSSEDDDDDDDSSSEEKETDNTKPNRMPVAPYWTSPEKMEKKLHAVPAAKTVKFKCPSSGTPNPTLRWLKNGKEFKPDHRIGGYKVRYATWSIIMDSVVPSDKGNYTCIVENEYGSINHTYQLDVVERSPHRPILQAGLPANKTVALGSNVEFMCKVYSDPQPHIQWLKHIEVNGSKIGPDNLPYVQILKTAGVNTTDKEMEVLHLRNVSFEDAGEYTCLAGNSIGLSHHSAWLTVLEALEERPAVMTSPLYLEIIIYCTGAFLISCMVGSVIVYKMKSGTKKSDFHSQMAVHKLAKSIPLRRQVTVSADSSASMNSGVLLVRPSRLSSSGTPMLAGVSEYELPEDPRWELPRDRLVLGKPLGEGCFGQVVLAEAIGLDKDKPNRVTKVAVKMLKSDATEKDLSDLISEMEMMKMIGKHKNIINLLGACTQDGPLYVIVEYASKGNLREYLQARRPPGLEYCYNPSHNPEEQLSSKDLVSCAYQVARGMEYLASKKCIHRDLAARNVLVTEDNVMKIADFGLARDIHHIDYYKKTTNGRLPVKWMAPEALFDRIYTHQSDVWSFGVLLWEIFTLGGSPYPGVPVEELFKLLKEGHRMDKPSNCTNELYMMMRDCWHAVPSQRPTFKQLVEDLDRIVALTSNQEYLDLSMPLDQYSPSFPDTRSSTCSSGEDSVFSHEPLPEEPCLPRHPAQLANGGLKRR
As for B1, the EC50(nM), dual-luciferase reporter gene assay, iLite FGF21 assay ready cells amounted to 0.25 nM.
B2 registered an EC50(nM), dual-luciferase reporter gene assay, iLite FGF21 assay ready cells of 1.06 nM.
Consider B3, for which the EC50(nM), dual-luciferase reporter gene assay, iLite FGF21 assay ready cells was 1.99 nM.
As for B4, the EC50(nM), dual-luciferase reporter gene assay, iLite FGF21 assay ready cells is 1.31 nM.
Take B5: the EC50(nM), dual-luciferase reporter gene assay, iLite FGF21 assay ready cells was determined as 0.99 nM.
Take B6: the EC50(nM), dual-luciferase reporter gene assay, iLite FGF21 assay ready cells stood at 4.61 nM.
Turning to B7, the EC50(nM), dual-luciferase reporter gene assay, iLite FGF21 assay ready cells came to 0.3 nM.
Then B8, with 0.24 nM; and B9, with 1.84 nM.
The molecule B10 gave an EC50(nM), dual-luciferase reporter gene assay, iLite FGF21 assay ready cells of 1.13 nM.
Regarding B11, the EC50(nM), dual-luciferase reporter gene assay, iLite FGF21 assay ready cells turned out to be 0.47 nM.
Molecule B12 displayed an EC50(nM), dual-luciferase reporter gene assay, iLite FGF21 assay ready cells of 0.52 nM.
The molecule B13 showed an EC50(nM), dual-luciferase reporter gene assay, iLite FGF21 assay ready cells of 0.28 nM.
In turn, B14 registered an EC50(nM), dual-luciferase reporter gene assay, iLite FGF21 assay ready cells of 1.18 nM.
Then B15, with 0.28 nM; and B16, with 1.02 nM; and B17, with 2.06 nM.
For B18, the EC50(nM), dual-luciferase reporter gene assay, iLite FGF21 assay ready cells was 2.09 nM.
Turning to B19, the EC50(nM), dual-luciferase reporter gene assay, iLite FGF21 assay ready cells came out at 1 nM.
B20 yielded an EC50(nM), dual-luciferase reporter gene assay, iLite FGF21 assay ready cells of 1.4 nM.
Molecule B21 yielded an EC50(nM), dual-luciferase reporter gene assay, iLite FGF21 assay ready cells of 2.69 nM.
